The record followed here is patent US20170260274A1 (LUTANA, published 2017).

Where only a bound is given, the exact number is not on record here.

For assay [1], the target named is T1, epidermal growth factor receptor (EGFR) (human, UniProt P00533 25-1210). The assay can be described thus: cell-based or functional assay.
For assay [2], the target named is T1, epidermal growth factor receptor (EGFR). Kind of assay: flow cytometry, equilibrium binding on EGFR-expressing A431 cells (apparent KD). On the technique in general: In flow cytometry, cells or beads pass a laser one at a time.
Procedure: Detection of bound antibody or immunoRNase was performed using murine anti-c-myc monoclonal antibody clone 9E10 (Roche, Penzberg, Germany) and goat-anti-mouse fluorescein isothiocyanate (FITC) conjugate (Jackson ImmunoResearch, Suffolk, UK). Fluorescence of stained cells was measured on a FACS Canto II flow cytometer (Becton Dickinson) using the FACS Diva Software (Becton Dickinson). Background fluorescence was substracted from measured median fluorescence and relative affinities were calculated by nonlinear regression using GraphPad Prism 5.0 (GraphPad Software, La Jolla, Calif., USA).

B1: humanized anti-epidermal growth factor receptor (EGFR) scFv IZI08 (scFv)
scFv: EVQLVESGGGLVQPGGSLRLSCAASGFSLTNYGVHWVRQAPGKGLEWLGVIWSGGNTDYNTPFTSRFTISRDNSKNTLYLQMNSLRAEDTAVYYCARALTYYDYEFAYWGQGTTVTVSSGGGGSGGGGSGGGGSDIQLTQSPSFLSASVGDRVTITCRASQSIGTNIHWYQQKPGKAPKLLIKYASESISGVPSRFSGSGSGTEFTLTISSLQPEDFATYYCQQNNNWPTTFGAGTKLEIKR
notes: Expressed in E. coli periplasm, monomer purified by SEC; also called anti-EGFR scFv; anti-EGFR scFv IZI08; not shown: C-terminal c-myc tag; C-terminal hexahistidine tag
As for B1, in assay [1], the “IC50 (nM), cell viability, A431” value was > 3620 nM; the “IC50 (nM), cell viability, HNO97” value was > 3620 nM; the “IC50 (nM), cell viability, HNO211” value was > 3620 nM; the “IC50 (nM), cell viability, HNO410” value is > 3620 nM. In assay [2], the Kd is 0.0096 µM.

B2: Ranpirnase-GS-scFv (other)
chain: QDWLTFQKKHITNTRDVDCDNIMSTNLFHCKDKNTFIYSRPEPVKAICKGIIASKNVLTTSEFYLSDCNVTSRPCKYKLKKSTNKFCVTCENQAPVHFVGVGSCGGGGSGGGGSGGGGSEVQLVESGGGLVQPGGSLRLSCAASGFSLTNYGVHWVRQAPGKGLEWLGVIWSGGNTDYNTPFTSRFTISRDNSKNTLYLQMNSLRAEDTAVYYCARALTYYDYEFAYWGQGTTVTVSSGGGGSGGGGSGGGGSDIQLTQSPSFLSASVGDRVTITCRASQSIGTNIHWYQQKPGKAPKLLIKYASESISGVPSRFSGSGSGTEFTLTISSLQPEDFATYYCQQNNNWPTTFGAGTKLEIKR
modifications: Q* at position 1 of SEQ ID NO:4 stands for a pyroglutamate (as printed for Ranpirnase)
notes: also called Ranpimase-GS-scFv; immunoRNase Ranpirnase-GS-scFv; not shown: C-terminal c-myc tag; C-terminal hexahistidine tag
On to B2, for which, in assay [1], the “IC50 (nM), cell viability, A431” value is > 3620 nM; the “IC50 (nM), cell viability, HNO97” value was 1260 nM; the “IC50 (nM), cell viability, HNO211” value turned out to be 1420 nM; the “IC50 (nM), cell viability, HNO410” value came out at 2520 nM. Further, the Kd in assay [2] came to 0.0147 µM.
